From the supplement of paper PMC10567573 come the findings set out here.

Sequences and labels used below:
B1: EHMT1 (parent)
chain: EEINKNISDFGRQQLLPPFPSLHQ
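Further: lentivirally expressed fusions sorted by FACS into six bins by GFP to DsRed ratio, PSI derived from sequencing read proportions per bin multiplied by bin number.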

Variants of B1 are the subject of this series. In words: protein stability index of a GFP-peptide fusion (GPS, HEK-293T) (PSI 1-6); higher = more stable. The conditions noted are these: c terminus: a fixed tail appended.
Turning to EEINKNISDFGRQQLLPGFPSLHQ, the protein stability index was 3.31.
As for EEINKNISDFGRQQLLPKFPSLHQ, the figure is 3.36; as for EEINKNISDFGRQQLLPQFPSLHQ, 3.63; as for EEINKNISDFGRQQLLPLFPSLHQ, 3.07.
As for EEINKNISDFGRQQLLPSFPSLHQ, the figure is 3.12.
As for EEINKNISDFGRQQLLPCFPSLHQ, the figure is 3.16; as for EEINKNISDFGRQQLLPRFPSLHQ, 3.57; as for EEINKNISDFGRQQLLPVFPSLHQ, 3.34.
EEINKNISDFGRQQLLPFFPSLHQ: the protein stability index was 2.91.
As to EEINKNISDFGRQQLLPHFPSLHQ, the protein stability index was determined as 3.15.
The value for EEINKNISDFGRQQLLPAFPSLHQ was 3.28; that for EEINKNISDFGRQQLLPEFPSLHQ was 3.66.
As for EEINKNISDFGRQQLLPTFPSLHQ, the figure is 2.92; as for EEINKNISDFGRQQLLPIFPSLHQ, 2.87; as for EEINKNISDFGRQQLLPWFPSLHQ, 3.06.
As for EEINKNISDFGRQQLLPDFPSLHQ, the figure is 3.46; as for EEINKNISDFGRQQLLPYFPSLHQ, 2.94; as for EEINKNISDFGRQQLLPMFPSLHQ, 2.95.
On to EEINKNISDFGRQQLLPPFHSLHQ, for which the protein stability index was found to be 2.69.
In the case of EEINKNISDFGRQQLLPPFYSLHQ, the protein stability index was 2.59.
With EEINKNISDFGRQQLLPPFWSLHQ, the protein stability index amounted to 1.82.
As for EEINKNISDFGRQQLLPPFGSLHQ, the figure is 3.37; as for EEINKNISDFGRQQLLPPFRSLHQ, 2.5.
As for EEINKNISDFGRQQLLPPFMSLHQ, the figure is 2.51.
As for EEINKNISDFGRQQLLPPFKSLHQ, the figure is 3.3.
With EEINKNISDFGRQQLLPPFDSLHQ, the protein stability index was found to be 3.5.
As for EEINKNISDFGRQQLLPPFLSLHQ, the figure is 2.73.
As for EEINKNISDFGRQQLLPPFCSLHQ, the protein stability index worked out at 2.87.
For EEINKNISDFGRQQLLPPFQSLHQ, the protein stability index is 3.31.
The value for EEINKNISDFGRQQLLPPFISLHQ was 2.69; that for EEINKNISDFGRQQLLPPFNSLHQ was 3.32.
As for EEINKNISDFGRQQLLPPFTSLHQ, the figure is 3.01.
With EEINKNISDFGRQQLLPPFFSLHQ, the protein stability index was 2.61.
As for EEINKNISDFGRQQLLPPFESLHQ, the figure is 3.73; as for EEINKNISDFGRQQLLPPFASLHQ, 2.82; as for EEINKNISDFGRQQLLPPFVSLHQ, 3.02.
As for EEINKNISDFGRQQLLPPFSSLHQ, the figure is 3.22; as for EEINKNISDFGRQQLIPPFPSLHQ, 2.82.
EEINKNISDFGRQQLSPPFPSLHQ: the protein stability index worked out at 3.73.
In the case of EEINKNISDFGRQQLWPPFPSLHQ, the protein stability index was 2.65.
The value for EEINKNISDFGRQQLQPPFPSLHQ was 3.83; that for EEINKNISDFGRQQLRPPFPSLHQ was 3.23; that for EEINKNISDFGRQQLCPPFPSLHQ was 3.26.
As for EEINKNISDFGRQQLMPPFPSLHQ, the figure is 2.79; as for EEINKNISDFGRQQLPPPFPSLHQ, 3.34.
As to EEINKNISDFGRQQLAPPFPSLHQ, the protein stability index turned out to be 3.57.
Turning to EEINKNISDFGRQQLYPPFPSLHQ, the protein stability index worked out at 2.45.
Consider EEINKNISDFGRQQLTPPFPSLHQ, for which the protein stability index was 3.5.
The value for EEINKNISDFGRQQLGPPFPSLHQ was 3.85.
The value for EEINKNISDFGRQQLVPPFPSLHQ was 3.33; that for EEINKNISDFGRQQLHPPFPSLHQ was 3.32.
As for EEINKNISDFGRQQLFPPFPSLHQ, the figure is 2.42; as for EEINKNISDFGRQQLKPPFPSLHQ, 3.05; as for EEINKNISDFGRQQLEPPFPSLHQ, 3.72.
On to EEINKNISDFGRQQLDPPFPSLHQ, for which the protein stability index is 4.
The value for EEINKNISDFGRQQLNPPFPSLHQ was 3.71.
Take EEINKNISDFGRQQFLPPFPSLHQ: the protein stability index was determined as 2.31.
As for EEINKNISDFGRQQDLPPFPSLHQ, the figure is 3.81; as for EEINKNISDFGRQQQLPPFPSLHQ, 3.3.
With EEINKNISDFGRQQGLPPFPSLHQ, the protein stability index worked out at 3.37.
For the variant EEINKNISDFGRQQELPPFPSLHQ, the protein stability index amounted to 3.65.
EEINKNISDFGRQQYLPPFPSLHQ: the protein stability index was 2.97.
In the case of EEINKNISDFGRQQMLPPFPSLHQ, the protein stability index worked out at 2.71.
The value for EEINKNISDFGRQQHLPPFPSLHQ was 2.96; that for EEINKNISDFGRQQTLPPFPSLHQ was 3.15.
With EEINKNISDFGRQQVLPPFPSLHQ, the protein stability index came to 3.62.
As to EEINKNISDFGRQQWLPPFPSLHQ, the protein stability index was 2.5.
The value for EEINKNISDFGRQQRLPPFPSLHQ was 3.28; that for EEINKNISDFGRQQPLPPFPSLHQ was 2.92.
As for EEINKNISDFGRQQCLPPFPSLHQ, the figure is 2.54.
For the variant EEINKNISDFGRQQILPPFPSLHQ, the protein stability index was 2.85.
As for EEINKNISDFGRQQSLPPFPSLHQ, the protein stability index stood at 2.82.
As for EEINKNISDFGRQQALPPFPSLHQ, the figure is 2.81.
For the variant EEINKNISDFGRQQNLPPFPSLHQ, the protein stability index stood at 2.87.
As for EEINKNISDFGRQQKLPPFPSLHQ, the figure is 3.07; as for EEINKNISDFGRQQLLPPTPSLHQ, 4.04.
As for EEINKNISDFGRQQLLPPKPSLHQ, the figure is 3.99; as for EEINKNISDFGRQQLLPPCPSLHQ, 4.24.
As to EEINKNISDFGRQQLLPPYPSLHQ, the protein stability index stood at 3.29.
As for EEINKNISDFGRQQLLPPSPSLHQ, the figure is 4.19.
As for EEINKNISDFGRQQLLPPHPSLHQ, the protein stability index is 3.69.
The value for EEINKNISDFGRQQLLPPMPSLHQ was 4.19; that for EEINKNISDFGRQQLLPPNPSLHQ was 4.37.
As for EEINKNISDFGRQQLLPPLPSLHQ, the figure is 3.54; as for EEINKNISDFGRQQLLPPPPSLHQ, 4.41.
For the variant EEINKNISDFGRQQLLPPVPSLHQ, the protein stability index was 3.76.
EEINKNISDFGRQQLLPPRPSLHQ: the protein stability index was found to be 4.1.
Take EEINKNISDFGRQQLLPPQPSLHQ: the protein stability index worked out at 4.38.
As for EEINKNISDFGRQQLLPPGPSLHQ, the figure is 4.05.
Consider EEINKNISDFGRQQLLPPWPSLHQ, for which the protein stability index came out at 2.01.
For the variant EEINKNISDFGRQQLLPPEPSLHQ, the protein stability index amounted to 4.39.
As for EEINKNISDFGRQQLLPPIPSLHQ, the figure is 3.61.
As for EEINKNISDFGRQQLLPPDPSLHQ, the figure is 4.42; as for EEINKNISDFGRQQLLPPAPSLHQ, 4.02.
